The target of data set [1] is T1, IPDOKF1 (isophthalate dioxygenase, IPDO) (Comamonas testosteroni, UniProt B7WRK8).
T1 construct: gene CtesDRAFT_PD2139; 424 residues per protomer; ~50 kDa monomer, ~150 kDa trimer; primers encode N-terminus MNKEMSE and C-terminus PVFSL; Rieske [2Fe-2S]; C69/H71/C88/H91, Fe H177/H182/D337; assayed with separate reductase IPDRKF1
T1 sequence (B7WRK8 1-424): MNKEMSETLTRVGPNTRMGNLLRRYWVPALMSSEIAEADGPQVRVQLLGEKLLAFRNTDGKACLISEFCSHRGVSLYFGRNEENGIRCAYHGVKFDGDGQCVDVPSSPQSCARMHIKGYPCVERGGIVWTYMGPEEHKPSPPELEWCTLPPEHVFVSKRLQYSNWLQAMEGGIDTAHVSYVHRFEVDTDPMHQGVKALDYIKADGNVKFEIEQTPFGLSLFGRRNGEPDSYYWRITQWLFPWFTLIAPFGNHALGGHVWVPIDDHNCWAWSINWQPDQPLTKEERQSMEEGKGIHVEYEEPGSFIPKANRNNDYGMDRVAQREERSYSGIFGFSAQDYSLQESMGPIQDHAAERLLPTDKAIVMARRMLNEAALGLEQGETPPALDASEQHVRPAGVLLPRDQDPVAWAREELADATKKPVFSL
The data set is described as follows: X-ray co-crystal structure, […] Å. Format: binding. Particulars: co-crystallized with 5 mM isophthalate, 0.1 M Tris-HCl pH 7.0; active site near mononuclear iron.

The target of data set [2] is isophthalate dioxygenase from Comamonas testosteroni KF1 (IPDOKF1) (Comamonas testosteroni KF1). The data set is described as follows: SEC; gel filtration on a Superdex 200 column; peaks at 62 mL (trimer, ~150 kDa) and 73 mL (monomer, ~50 kDa). A general note: In gel filtration, larger molecules generally elute earlier.
Data set [3] has the same target. The data set is described as follows: crystal structure; apo IPDOKF1 at 2.96 Å and isophthalate complex at 3.3 Å, space group P 2_(1) 3, one monomer per asymmetric unit; the trimer arises by the threefold axis.
Substrate in data set [4]: O=C(O)c1cccc(C(=O)O)c1
The data set is described as follows: purified protein. Particulars: with reductase IPDRKF1, 1 mM NAD(P)H, 100 µM Fe(NH4)2(SO4)2, air-saturated 50 mM Tris, 25 °C, pH 7.5 in table footnote but pH 8.0 in methods.

Substrate in data set [5]: O=C(O)c1ccc(C(=O)O)cc1
The data set is described as follows: O2 consumption, Clark-type oxygen electrode. In kind it is biochemical, Comamonas testosteroni. Particulars: with reductase IPDRKF1, 1 mM NAD(P)H, 100 µM Fe(NH4)2(SO4)2, air-saturated 50 mM Tris, 25 °C, pH 7.5 in table footnote but pH 8.0 in methods.

Substrate in data set [6]: O=C(O)c1ccccc1C(=O)O
The data set is described as follows: O2 consumption, Clark-type oxygen electrode. In kind it is biochemical, Comamonas testosteroni. Particulars: with reductase IPDRKF1, 1 mM NAD(P)H, 100 µM Fe(NH4)2(SO4)2, air-saturated 50 mM Tris, 25 °C, pH 7.5 in table footnote but pH 8.0 in methods.

By stoichiometry N is commonly meant the number of molecules, sites or subunits per partner or assembly. What is called Km is the concentration of substrate that gives half-maximal velocity. In general, kcat refers to the maximal rate divided by the concentration of active sites. One may read the kcat/Km as the turnover number divided by the Michaelis constant.

As for `O=C(O)c1cccc(C(=O)O)c1` [IPA, isophthalate], in data set [1], the “X-ray co-crystal structure, 3.3 Å” value is “co-crystallized IPDOKF1 with its substrate and determined the structure of the isophthalate-bound complex”.
For “isophthalate dioxygenase from Comamonas testosteroni KF1 (IPDOKF1) (enzyme)”, the stoichiometry N in data set [2] and in data set [3] was 3 each time.

B1: IPDOKF1 (isophthalate dioxygenase, IPDO) (Comamonas testosteroni KF-1) (protein)
chain: MNKEMSETLTRVGPNTRMGNLLRRYWVPALMSSEIAEADGPQVRVQLLGEKLLAFRNTDGKACLISEFCSHRGVSLYFGRNEENGIRCAYHGVKFDGDGQCVDVPSSPQSCARMHIKGYPCVERGGIVWTYMGPEEHKPSPPELEWCTLPPEHVFVSKRLQYSNWLQAMEGGIDTAHVSYVHRFEVDTDPMHQGVKALDYIKADGNVKFEIEQTPFGLSLFGRRNGEPDSYYWRITQWLFPWFTLIAPFGNHALGGHVWVPIDDHNCWAWSINWQPDQPLTKEERQSMEEGKGIHVEYEEPGSFIPKANRNNDYGMDRVAQREERSYSGIFGFSAQDYSLQESMGPIQDHAAERLLPTDKAIVMARRMLNEAALGLEQGETPPALDASEQHVRPAGVLLPRDQDPVAWAREELADATKKPVFSL
As to B1, in data set [4], the Km is given as 31 ± 7 µM, the kcat was 4.9 s⁻¹ and the kcat/Km was 160000 M⁻¹ s⁻¹.

B2: IPDOKF1 (isophthalate dioxygenase, IPDO) (Comamonas testosteroni KF-1; F249H/V178A) (protein)
chain: MNKEMSETLTRVGPNTRMGNLLRRYWVPALMSSEIAEADGPQVRVQLLGEKLLAFRNTDGKACLISEFCSHRGVSLYFGRNEENGIRCAYHGVKFDGDGQCVDVPSSPQSCARMHIKGYPCVERGGIVWTYMGPEEHKPSPPELEWCTLPPEHVFVSKRLQYSNWLQAMEGGIDTAHASYVHRFEVDTDPMHQGVKALDYIKADGNVKFEIEQTPFGLSLFGRRNGEPDSYYWRITQWLFPWFTLIAPHGNHALGGHVWVPIDDHNCWAWSINWQPDQPLTKEERQSMEEGKGIHVEYEEPGSFIPKANRNNDYGMDRVAQREERSYSGIFGFSAQDYSLQESMGPIQDHAAERLLPTDKAIVMARRMLNEAALGLEQGETPPALDASEQHVRPAGVLLPRDQDPVAWAREELADATKKPVFSL
notes: 424 residues per protomer; ~50 kDa monomer, ~150 kDa trimer; primers encode N-terminus MNKEMSE and C-terminus PVFSL; Rieske [2Fe-2S]; C69/H71/C88/H91, Fe H177/H182/D337; assayed with separate reductase IPDRKF1
As for B2, in data set [4], the Michaelis-Menten constant (Km) was found to be 32 ± 8 µM, the kcat is 4.8 s⁻¹ and the kcat/Km came to 148000 M⁻¹ s⁻¹. In addition, in data set [5], the Km is given as 95 ± 11 µM, the kcat was 4.9 ± 0.2 s⁻¹ and the kcat/Km turned out to be 51000 ± 6000 M⁻¹ s⁻¹. Further, in data set [6], the Km turned out to be 91 ± 16 µM, the kcat amounted to 4 ± 0.2 s⁻¹ and the kcat/Km turned out to be 44000 ± 8000 M⁻¹ s⁻¹.

Values taken from article PMC12445078, “Structure-guided engineering of an aromatic ring-hydroxylating dioxygenase for broad-spectrum phthalate degradation” (Journal of Bacteriology, 2025).
